The experiment has as its target target ligand expressed on MutuDC1940 cells. Put plainly: cell-based or functional assay.

Turning to “antibody-bound lipid nanoparticle carrying a fragment of the NLDC145 antibody conjugated with the membrane scaffold protein ApoE3 (scFv)”, the relative expression level of the Firefly luciferase gene against general lipid nanoparticles, MutuDC1940 cells, 10% FBS, LP ratio 500:1 to 100,000:1 was 5 to 20 times and the relative expression level of the Firefly luciferase gene against general lipid nanoparticles, MutuDC1940 cells, no serum, LP ratio 500:1 to 1,000:1 was in the range of 5 to 20 times.

For the substance “antibody-bound lipid nanoparticle carrying a fragment of the NLDC145 antibody conjugated with the membrane scaffold protein ApoA1 (scFv)”, the relative expression level of the Firefly luciferase gene against general lipid nanoparticles, MutuDC1940 cells, 10% FBS, LP ratio 1,000:1 to 100,000:1 was 5 to 20 times and the relative expression level of the Firefly luciferase gene against general lipid nanoparticles, MutuDC1940 cells, no serum, LP ratio 500:1 to 10,000:1 is 5 to 20 times.

As to “antibody-bound lipid nanoparticle carrying a fragment of the NLDC145 antibody conjugated with the membrane scaffold protein MSP1E3D1 (scFv)”, the relative expression level of the Firefly luciferase gene against general lipid nanoparticles, MutuDC1940 cells, 10% FBS, LP ratio 5,000:1 to 100,000:1 was 5 to 20 times and the relative expression level of the Firefly luciferase gene against general lipid nanoparticles, MutuDC1940 cells, no serum, LP ratio 5,000:1 to 10,000:1 was 5 to 20 times.

The values above are taken from patent US20250152732A1.
